Data: patent US20180170992A1

Experiments:
[1] = molecular target: IL13Rα2 expressed on the surface of human glioma cells (A172, N10, U251, U87, U118, U373, GBM12, GBM43) and in GBM tissue (human) (UniProt Q14627); assay: flow cytometry on N10 glioma cells pre-incubated with 10x excess rhIL13 [left table]
[2] = molecular target: IL13Rα2 expressed on the surface of human glioma cells (A172, N10, U251, U87, U118, U373, GBM12, GBM43) and in GBM tissue (human) (UniProt Q14627); assay: flow cytometry on N10 glioma cells, isotype control [left table]
[3] = molecular target: recombinant human IL13Rα2hFc chimera (R&D Systems) (human) (UniProt Q14627); assay: SPR, Biacore 3000; mAb immobilised, rhIL13Rα2 in the flow; 1:1 model
[4] = molecular target: Pngase F-treated rhIL13Rα2hFc (human) (UniProt Q14627); assay: plate-bound ELISA on Pngase F-treated rhIL13Rα2hFc

% positive cells [1] | % positive cells [2] | Kd [3] | koff [3] | kon [3] | percent decrease of binding against untreated protein [4] | Substance
0.9% | 1.9% | – | – | – | – | control mouse IgG (antibody)
– | – | 104 nM | 0.00231 s⁻¹ | 22300 M⁻¹ s⁻¹ | 80% | mAb to IL13Rα2 (clone 83807), R&D Systems (antibody)
– | – | 46.1 nM | 0.00499 s⁻¹ | 108000 M⁻¹ s⁻¹ | – | monoclonal antibody to IL13Rα2 (clone B-D13), Santa Cruz Biotechnology
